± gives the uncertainty stated by the source.
B1: Cyclin-F, residues 28 to 80; numbered along this chain, P41002 (parent)
chain: RNLTILSLPEDVLFHILKWLSVEDILAVRAVHSQLKDLVDNHASVWACASFQE
B2: Ankyrin-1, residues 1405 to 1484; numbered along this chain, P16157 (parent)
chain: MKMAVISEHLGLSWAELARELQFSVEDINRIRVENPNSLLEQSVALLNLWVIREGQNANMENLYTALQSIDRGEIVNMLE

Variants of: B1
Test: abundance fitness (aPCA) (normalised: wild type 0, dead -1); higher = more abundant; growth selection in yeast, the domain comes from the species named
Conditions: Homo sapiens
With RNLTILSLPEDVLFHILKWLSVEDILAVRAVHSQLKDLVDNHASVWACASWQE [F51W] the abundance fitness was -0.279 ± 0.13.
In the case of RNLTILSLPEDVLFSILKWLSVEDILAVRAVHSQLKDLVDNHASVWACASFQE [H15S], the abundance fitness is reported as -0.235 ± 0.12.
RNLLILSLPEDVLFHILKWLSVEDILAVRAVHSQLKDLVDNHASVWACASFQE [T4L] showed an abundance fitness of -0.836 ± 0.13.
RNLWILSLPEDVLFHILKWLSVEDILAVRAVHSQLKDLVDNHASVWACASFQE [T4W] showed an abundance fitness of -0.65 ± 0.14.
RNLTILSLPEDVLFHILKWLSVEDILAVRAVHGQLKDLVDNHASVWACASFQE [S33G] showed an abundance fitness of -0.554 ± 0.064.
In the case of RNLTILSLPEDVLFHILKWLSVEDILAVRAVHAQLKDLVDNHASVWACASFQE [S33A], the abundance fitness is reported as -0.648 ± 0.072.
With RNLTILSLPEDVLFHILKWLSVEDILPVRAVHSQLKDLVDNHASVWACASFQE [A27P] the abundance fitness was -0.44 ± 0.17.
RNLTILSLPEDVLFHILKWLSWEDILAVRAVHSQLKDLVDNHASVWACASFQE [V22W] showed an abundance fitness of -0.087 ± 0.079.
With RNLTILSLPEDVLFHILKWLSVEDILAVRAVHSQLKDLVDHHASVWACASFQE [N41H] the abundance fitness was -0.035 ± 0.18.
In the case of RNLTILSLPEDPLFHILKWLSVEDILAVRAVHSQLKDLVDNHASVWACASFQE [V12P], the abundance fitness is reported as -0.733 ± 0.13.
For TNLTILSLPEDVLFHILKWLSVEDILAVRAVHSQLKDLVDNHASVWACASFQE [R1T], the abundance fitness was -0.058 ± 0.13.
In the case of RTLTILSLPEDVLFHILKWLSVEDILAVRAVHSQLKDLVDNHASVWACASFQE [N2T], the abundance fitness is reported as -0.168 ± 0.11.
Variant RNLTILSLPEDVLFHILKWLSVEDVLAVRAVHSQLKDLVDNHASVWACASFQE [I25V] has an abundance fitness of -0.292 ± 0.097.
In the case of RNLTILSLPEDVLFHILKGLSVEDILAVRAVHSQLKDLVDNHASVWACASFQE [W19G], the abundance fitness is reported as -0.273 ± 0.097.
With RNLTILSLPEDVLFHILKMLSVEDILAVRAVHSQLKDLVDNHASVWACASFQE [W19M] the abundance fitness was 0.33 ± 0.13.
RNLTILSLPEDVLFHILSWLSVEDILAVRAVHSQLKDLVDNHASVWACASFQE [K18S] gave an abundance fitness of -0.215 ± 0.097.
For RNSTILSLPEDVLFHILKWLSVEDILAVRAVHSQLKDLVDNHASVWACASFQE [L3S], the abundance fitness was -0.09 ± 0.098.
RNLTILSLPEDVLFHILKWLSVEDILAVRAVHSQLKDLVDNHASVWNCASFQE [A47N] gave an abundance fitness of -0.088 ± 0.21.
RNLTILSLPEDVLFHILKWLSVEDILAVRAVHSQLKDLVDNHASVWACCSFQE [A49C] gave an abundance fitness of -0.185 ± 0.12.
RNLTILSLPEDVLFHILKWLSVEDILAVRAVHSQCKDLVDNHASVWACASFQE [L35C] gave an abundance fitness of -0.643 ± 0.22.
Variant RNLTILSLPEDVLFHILKWLSVEDILAVRAAHSQLKDLVDNHASVWACASFQE [V31A] has an abundance fitness of -0.046 ± 0.089.
RNLTILSLPEDVLQHILKWLSVEDILAVRAVHSQLKDLVDNHASVWACASFQE [F14Q] showed an abundance fitness of -0.08 ± 0.1.
For RNLTILSLPEDVLFHILKWLEVEDILAVRAVHSQLKDLVDNHASVWACASFQE [S21E], the abundance fitness was -0.092 ± 0.14.
RNLTILSLPFDVLFHILKWLSVEDILAVRAVHSQLKDLVDNHASVWACASFQE [E10F] showed an abundance fitness of -0.449 ± 0.14.
In the case of RNLTILSLPWDVLFHILKWLSVEDILAVRAVHSQLKDLVDNHASVWACASFQE [E10W], the abundance fitness is reported as -0.737 ± 0.12.

Variants of: B2
Test: as above
Conditions: Homo sapiens
Work on MKMAVISEHLGLSWAELARELQFSVEDINRIRVEIPNSLLEQSVALLNLWVIREGQNANMENLYTALQSIDRGEIVNMLE [N35I] yielded an abundance fitness of -0.457 ± 0.11.
Work on MKMAVISEHLGLSWAELARELKFSVEDINRIRVENPNSLLEQSVALLNLWVIREGQNANMENLYTALQSIDRGEIVNMLE [Q22K] yielded an abundance fitness of 0.011 ± 0.08.
With MKMAVISEHLGLSWAELARELQFSVEDINRIRVENPNSLLEQSGALLNLWVIREGQNANMENLYTALQSIDRGEIVNMLE [V44G] the abundance fitness was 0.046 ± 0.039.
Variant MKMAVISEHLGLSWAELARELQFSVEDINRIRVENPNSLLEQSVALLNLWVIREGQNANMENLYTALQSLDRGEIVNMLE [I70L] has an abundance fitness of -0.762 ± 0.1.
With MKMAVISEHLGLSWAELARELQFSVEDINRIRVENPNSLLEQSVALLNLWVIREGQNANMENLYTALQSHDRGEIVNMLE [I70H] the abundance fitness was -0.404 ± 0.45.
MKMAVISEHLGLSWAELARELQFSVEDINRIRVENPNSLLEQSVALLNLWVIREGQNANMENLYTALESIDRGEIVNMLE [Q68E] showed an abundance fitness of -0.102 ± 0.082.
Variant MKMSVISEHLGLSWAELARELQFSVEDINRIRVENPNSLLEQSVALLNLWVIREGQNANMENLYTALQSIDRGEIVNMLE [A4S] has an abundance fitness of -0.259 ± 0.083.
For MKMAVISEHLGLSWAELARELQHSVEDINRIRVENPNSLLEQSVALLNLWVIREGQNANMENLYTALQSIDRGEIVNMLE [F23H], the abundance fitness was -0.829 ± 0.36.
In the case of MDMAVISEHLGLSWAELARELQFSVEDINRIRVENPNSLLEQSVALLNLWVIREGQNANMENLYTALQSIDRGEIVNMLE [K2D], the abundance fitness is reported as -0.542 ± 0.14.
In the case of MKMAVISEHLGLSWAELARELQFSVEDINRIRVENPNSLLEQSVALLNLWVIREGQNANMENLLTALQSIDRGEIVNMLE [Y64L], the abundance fitness is reported as -0.172 ± 0.067.
With MKMAVISEHLGLSWAELARELQFSVEDINRIRVENPNSLLEQPVALLNLWVIREGQNANMENLYTALQSIDRGEIVNMLE [S43P] the abundance fitness was -0.721 ± 0.13.
MKMAVISEHLGLSWAELARELQFSVEDINRIRVENPNSLLEQSVALLNLWVIREGQNANMENQYTALQSIDRGEIVNMLE [L63Q] gave an abundance fitness of -0.075 ± 0.23.
MKMAVISEHSGLSWAELARELQFSVEDINRIRVENPNSLLEQSVALLNLWVIREGQNANMENLYTALQSIDRGEIVNMLE [L10S] gave an abundance fitness of -0.852 ± 0.22.

— the Human Domainome abundance scans (Beltran et al. 2025)
